Results from paper PMC4523612 (The Journal of Cell Biology, 2015).

T1: Eg5 (UniProt P52732 1-1056)
T1 sequence: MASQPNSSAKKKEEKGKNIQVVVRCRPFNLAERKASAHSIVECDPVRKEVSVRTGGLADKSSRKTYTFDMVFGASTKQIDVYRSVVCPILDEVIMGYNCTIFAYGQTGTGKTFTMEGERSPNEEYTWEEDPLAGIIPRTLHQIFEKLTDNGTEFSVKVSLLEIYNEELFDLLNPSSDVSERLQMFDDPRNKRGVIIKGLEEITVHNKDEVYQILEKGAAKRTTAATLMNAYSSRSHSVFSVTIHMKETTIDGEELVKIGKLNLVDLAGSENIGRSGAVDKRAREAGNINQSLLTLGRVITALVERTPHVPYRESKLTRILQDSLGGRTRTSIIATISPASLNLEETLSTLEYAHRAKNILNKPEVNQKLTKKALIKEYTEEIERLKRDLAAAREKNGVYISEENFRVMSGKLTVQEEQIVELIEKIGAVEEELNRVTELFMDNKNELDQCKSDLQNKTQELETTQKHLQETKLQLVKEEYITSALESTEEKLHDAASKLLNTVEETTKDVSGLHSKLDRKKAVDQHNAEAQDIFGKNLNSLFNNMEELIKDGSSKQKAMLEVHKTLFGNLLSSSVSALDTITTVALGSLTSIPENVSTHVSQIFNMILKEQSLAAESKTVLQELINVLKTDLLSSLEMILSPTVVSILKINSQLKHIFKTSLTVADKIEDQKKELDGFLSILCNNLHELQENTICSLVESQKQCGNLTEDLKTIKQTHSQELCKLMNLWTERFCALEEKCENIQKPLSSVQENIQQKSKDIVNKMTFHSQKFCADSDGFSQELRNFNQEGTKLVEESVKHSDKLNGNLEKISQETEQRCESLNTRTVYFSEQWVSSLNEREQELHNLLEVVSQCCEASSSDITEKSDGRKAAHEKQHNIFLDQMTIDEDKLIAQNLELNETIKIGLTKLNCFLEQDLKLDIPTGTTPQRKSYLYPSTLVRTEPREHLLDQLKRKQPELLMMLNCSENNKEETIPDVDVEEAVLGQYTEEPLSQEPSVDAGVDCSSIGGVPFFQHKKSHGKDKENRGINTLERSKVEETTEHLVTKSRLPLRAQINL

B1: GFP-TPX2-2A (S121/125A) (natural protein)
chain: MSQVKSSYSYDAPSDFINFSSLDDEGDTQNIDSWFEEKANLENKLLGKNGTGGLFQGKTPLRKANLQQAIVTPLKPVDNTYYKEAEKENLVEQSIPSNACSSLEVEAAISRKTPAQPQRRALRLAAQKDLEQKEKHHVKMKAKRCATPVIIDEILPSKKMKVSNNKKKPEEEGSAHQDTAEKNASSPEKAKGRHTVPCMPPAKQKFLKSTEEQELEKSMKMQQEVVEMRKKNEEFKKLALAGIGQPVKKSVSQVTKSVDFHFRTDERIKQHPKNQEEYKEVNFTSELRKHPSSPARVTKGCTIVKPFNLSQGKKRTFDETVSTYVPLAQQVEDFHKRTPNRYHLRSKKDDINLLPSKSSVTKICRDPQTPVLQTKHRARAVTCKSTAELEAEELEKLQQYKFKARELDPRILEGGPILPKKPPVKPPTEPIGFDLEIEKRIQERESKKKTEDEHFEFHSRPCPTKILEDVVGVPEKKVLPITVPKSPAFALKNRIRMPTKEDEEEDEPVVIKAQPVPHYGVPFKPQIPEARTVEICPFSFDSRDKERQLQKEKKIKELQKGEVPKFKALPLPHFDTINLPEKKVKNVTQIEPFCLETDRRGALKAQTWKHQLEEELRQQKEAACFKARPNTVISQEPFVPKKEKKSVAEGLSGSLVQEPFQLATEKRAKERQELEKRMAEVEAQKAQQLEEARLQEEEQKKEELARLRRELVHKANPIRKYQGLEIKSSDQPLTVPVSPKFSTRFHC

How the values were obtained:
[1] = target: Eg5 (UniProt P52732)
[2] = target: T1, Eg5

Molecule	binding relative to WT (% less than WT) [1]	binding relative to WT [2] [% less than WT]
GFP-TPX2-2D (from UniProt Q9ULW0 1-747) (natural protein)	41	
B1		41
